Experimental data published in patent US11591580B2, “K85 mutation-containing plant EPSPS mutant, and encoding gene and application thereof” (GEVOTO LLC, priority 2017, dated 2023).

Experiments:
[1] = tested on: double knockout E. coli; test: growth of E. coli transformed by genes encoding maize EPSPS (wild type and mutants) in culture media containing different glyphosate concentrations (Example 6, FIG. 2); format: cell-based
Excerpt: E. coli transformed by the gene (SEQ ID NO: 9, which encoded the wild-type maize EPSPS represented by SEQ ID NO: 10) encoding the wild-type maize EPSPS was taken as a control group.
E. coli transformed by the gene (SEQ ID NO: 11, which encoded SEQ ID NO: 12) encoding the maize EPSPS mutant I that contained only a single mutation K94(85)I, was taken as Experiment Group 1.
E. coli transformed by the gene (with a nucleotide sequence represented by SEQ ID NO: 13, and the amino acid sequence of the encoded three-mutation maize EPSPS mutant is represented by SEQ ID NO: 14) encoding the maize EPSPS mutant that contained only three mutations G105(96)A, P110(101)S and K207(194)R but no mutation K94(85)I, was taken as Experiment Group 2.
E. coli transformed by the gene (SEQ ID NO: 15) encoding the maize EPSPS mutant (containing four mutations: K94(85)I, G105(96)A, P110(101)S and K207(194)R) provided in Example 3 was taken as Experiment Group 3.
The glyphosate resistance of the gene encoding the maize EPSPS mutant and the maize EPSPS mutant encoded thereby in the E. coli was verified by detecting the growth situation of the transformed E. coli in culture media containing different glyphosate concentrations (0, 1, 20, 50 mM). In the above, the E. coli used is double knockout E. coli.
Results are as shown in FIG. 2 (wherein Z0 represents a control group, Z1 represents Experiment Group 1, Z2 represents Experiment Group 2, and Z3 represents Experiment Group 3).

[2] = tested on: transgenic rice seedlings; test: glyphosate resistance of the EPSPS mutant in transgenic rice plants sprayed with glyphosate (Example 8, Table 1); format: in vivo, rice (Nipponbare); details: for survival of transformed rice seedlings (in words): 2× and 5× glyphosate dosages; for glyphosate resistance of transformed rice seedlings (in words): glyphosate sprayed at the 1× dosage
[3] = culture media containing 1 mM glyphosate
[4] = 1X dosage (1060 g/hectare glyphosate), recorded on 10th day
[5] = 2X dosage (2120 g/hectare) sprayed to plants surviving 1X, recorded 10 days later
[6] = 5X dosage (5300 g/hectare) sprayed to plants surviving 2X, recorded 10 days later
[7] = 20X dosage (21200 g/hectare) sprayed to plants surviving 5X, recorded 10 days later

B1: Z1: maize EPSPS mutant I, SEQ ID NO: 12, containing only a single mutation K94(85)I (protein)
chain: MAVQAGAEEIVLQPIKEISGTVKLPGSKSLSNRILLLAALSEGTTVVDNLLNSEDVHYMLGALRTLGLSVEADKAAKRAVVVGCGGKFPVEDSIEEVQLFLGNAGTAMRPLTAAVTAAGGNATYVLDGVPRMRERPIGDLVVGLKQLGADVDCFLGTDCPPVRVNGIGGLPGGKVKLSGSISSQYLSALLMAAPLALGDVEIEIIDKLISIPYVEMTLRLMERFGVKAEHSDSWDRFYIKGGQKYKSPKNAYVEGDASSASYFLAGAAITGGTVTVEGCGTTSLQGDVKFAEVLEMMGAKVTWTETSVTVTGPPREPFGRKHLKAIDVNMNKMPDVAMTLAVVALFADGPTAIRDVASWRVKETERMVAIRTELTKLGASVEEGPDYCIITPPEKLNVTAIDTYDDHRMAMAFSLAACAEVPVTIRDPGCTRKTFPDYFDVLSTFVKN
modifications: Zea mays EPSPS mutant with mutation K94(85)I
growth of transformed E. coli ([1]; culture media containing 0 mM glyphosate and 1 mM glyphosate): obviously superior to that of control group (Z0) | growth of transformed E. coli [1, 3]: obviously superior to that of the control group (Z0) | % ++&+++ (percentage of plant having medium and high glyphosate resistance to the total number of plants observed) [2, 4]: 10.5% | number of plants with resistance + (low glyphosate resistance) [2, 4]: 1 | number of plants with resistance ++ (medium glyphosate resistance) [2, 4]: 2 | number of plants with resistance +++ (high glyphosate resistance) [2, 4]: 0 | number of plants with resistance − (no glyphosate resistance) [2, 4]: 16 | % ++&+++ (percentage of plant having medium and high glyphosate resistance to the total number of plants observed) [2, 5]: 0.0% | number of plants with resistance + (low glyphosate resistance) [2, 5]: 3 | number of plants with resistance ++ (medium glyphosate resistance) [2, 5]: 0 | number of plants with resistance +++ (high glyphosate resistance) [2, 5]: 0 | number of plants with resistance − (no glyphosate resistance) [2, 5]: 16 | survival of transformed rice seedlings (in words) [2]: some of the rice seedlings transformed by the maize EPSPS mutant Z1 survived | % ++&+++ (percentage of plant having medium and high glyphosate resistance to the total number of plants observed) [2, 6]: 0.0% | number of plants with resistance + (low glyphosate resistance) [2, 6]: 2 | number of plants with resistance ++ (medium glyphosate resistance) [2, 6]: 0 | number of plants with resistance +++ (high glyphosate resistance) [2, 6]: 0 | number of plants with resistance − (no glyphosate resistance) [2, 6]: 17 | % ++&+++ (percentage of plant having medium and high glyphosate resistance to the total number of plants observed) [2, 7]: 0.0% | number of plants with resistance + (low glyphosate resistance) [2, 7]: 0 | number of plants with resistance ++ (medium glyphosate resistance) [2, 7]: 0 | number of plants with resistance +++ (high glyphosate resistance) [2, 7]: 0 | number of plants with resistance − (no glyphosate resistance) [2, 7]: 19 | glyphosate resistance of transformed rice seedlings (in words) [2]: obviously superior to that of Z0

B2: Z0: wild-type maize EPSPS represented by SEQ ID NO: 10; control group of Example 6 (protein)
chain: MAVQAGAEEIVLQPIKEISGTVKLPGSKSLSNRILLLAALSEGTTVVDNLLNSEDVHYMLGALRTLGLSVEADKAAKRAVVVGCGGKFPVEDSKEEVQLFLGNAGTAMRPLTAAVTAAGGNATYVLDGVPRMRERPIGDLVVGLKQLGADVDCFLGTDCPPVRVNGIGGLPGGKVKLSGSISSQYLSALLMAAPLALGDVEIEIIDKLISIPYVEMTLRLMERFGVKAEHSDSWDRFYIKGGQKYKSPKNAYVEGDASSASYFLAGAAITGGTVTVEGCGTTSLQGDVKFAEVLEMMGAKVTWTETSVTVTGPPREPFGRKHLKAIDVNMNKMPDVAMTLAVVALFADGPTAIRDVASWRVKETERMVAIRTELTKLGASVEEGPDYCIITPPEKLNVTAIDTYDDHRMAMAFSLAACAEVPVTIRDPGCTRKTFPDYFDVLSTFVKN
modifications: Zea mays
growth of transformed E. coli [1, 3]: weak | % ++&+++ (percentage of plant having medium and high glyphosate resistance to the total number of plants observed) [2, 4]: 0.0% | number of plants with resistance + (low glyphosate resistance) [2, 4]: 4 | number of plants with resistance ++ (medium glyphosate resistance) [2, 4]: 0 | number of plants with resistance +++ (high glyphosate resistance) [2, 4]: 0 | number of plants with resistance − (no glyphosate resistance) [2, 4]: 16 | % ++&+++ (percentage of plant having medium and high glyphosate resistance to the total number of plants observed) [2, 5]: 0.0% | number of plants with resistance + (low glyphosate resistance) [2, 5]: 0 | number of plants with resistance ++ (medium glyphosate resistance) [2, 5]: 0 | number of plants with resistance +++ (high glyphosate resistance) [2, 5]: 0 | number of plants with resistance − (no glyphosate resistance) [2, 5]: 20 | survival of transformed rice seedlings (in words) [2]: no rice transformed by the wild-type maize EPSPS Z0 survived | % ++&+++ (percentage of plant having medium and high glyphosate resistance to the total number of plants observed) [2, 6]: 0.0% | number of plants with resistance + (low glyphosate resistance) [2, 6]: 0 | number of plants with resistance ++ (medium glyphosate resistance) [2, 6]: 0 | number of plants with resistance +++ (high glyphosate resistance) [2, 6]: 0 | number of plants with resistance − (no glyphosate resistance) [2, 6]: 20 | % ++&+++ (percentage of plant having medium and high glyphosate resistance to the total number of plants observed) [2, 7]: 0.0% | number of plants with resistance + (low glyphosate resistance) [2, 7]: 0 | number of plants with resistance ++ (medium glyphosate resistance) [2, 7]: 0 | number of plants with resistance +++ (high glyphosate resistance) [2, 7]: 0 | number of plants with resistance − (no glyphosate resistance) [2, 7]: 20 | glyphosate resistance of transformed rice seedlings (in words) [2]: no plant having medium or high glyphosate resistance
